According to the DeepSol protein solubility set:

Test: soluble on expression in E. coli; label from the status in PepcDB or PDB records

Sequence | soluble on expression in E. coli
MGSDKIHHHHHHMLFANSLENQLQQWNEVISKQPNNPNAYIRRGMVQFQLAKIEESIDDFDTAEKLDNRIKPYLWQRGLSYYYADRFAEGAQQFEIDLTVNSQDVEETVWRYLCMARLVGVTEARNNLLTVKNDPRLIMRSVYDLFAGHCTPDNVFNIGQTEGNKGKFYSHLYLGLYYEAENNLPLAQEYIVKAADKYKLDDYMWYLAQVHKKLRGWM | not soluble
MGSDKIHHHHHHMLGASQPYDLGPGIRRGSRGKGGAMTQIPNHDPLSDWGLPGWIYTSERFFKEEQDKVFRPSWQIVCHLNDIPKAGDFHTFDFIGESLVVVRSKDGGVRAFANVCRHRGARLLDGPVGRCGGRIVCPYHAWTYDLEGRLIGVPMRDDYPALDMAKEGLATIEVEVWRGFVFVRLEGDGPSVATMMAPYEDEVAHYRFEELQPFGRVTLRPRAVNWKNISDNYSDGLHIPVAHPGLTRLFGKGYGVEAEAYVDKMWGQLIDEPSESPSERLYQDILPDVAHLPGDRKRLWTYFKLWPNFAFDIYPDQVDFMQFIPISAEQTMIREIAYALPDDRREMKAARYLNWRINRQVNTEDTELVARVQQGMASRTFTAGPLATSEVSLRSFGRKMRALIPESRMPRPPEGW | not soluble
MGSDKIHHHHHHMLGTLKKLRSRLDEADLVQYNLVVGDQELPLNPLIGQTLSLTHTGNIFCCNCGRKTKKSYSQGHCFPCMQKLASCDMCIMKPETCHFDQGTCREPQWAQSHCFVPHYVYLSNTSGIKVGITRNNQLPTRWIDQGATQGLAIFKVSTRQLSGLIEVELAKLVKDKTNWQAMLKSNAADIDLNAKAQELIPHIEHRLNELAMEKGEYKIERLTETIQQINYPMTAFPKKISSHNFDKVPEVTGVLLGIKGQYLIFDTGVINIRKFSAYEVTVTTN | not soluble
MGSDKIHHHHHHMLHNTNQPQISRQMNELEAQCGGRLFNRTGRGVELTDLGQHLLPKIRSWLNVTDQLNNEILHSTDTPIGTVRIASLPSTAHPLLSTLYKVLQEKYPLIKLSVREGQGVHLEKWLEDGSVDLAILYRFNPTPKQGDIYLTQADTYLVGCEGDALTQASEVDFKAINQLPLVTFCRPSNWRNFLDHMAYENGVELNIVFEADSISLQTHLVSESRMYTMLGPQALKKASQYTSIQAAKIINPALKRYISLSISKHGYLTPACKAVMEEIRNLADLL | not soluble
MGSDKIHHHHHHMLHYTKEDLLELGAEITTREIYQQPDVWREAFEFYQAKREEIAAFLQEIADKHDYIKVILTGAGTSAYVGDTLLPYFKEVYDERKWNFNAIATTDIVANPATYLKKDVATVLVSFARSGNSPESLATVDLAKSLVDELYQVTITCAADGKLALQAHGDDRNLLLLQPAVSNDAGFAMTSSFTSMMLTTLLVFDPTEFAVKSERFEVVSSLARKVLDKAEDVKELVDLDFNRVIYLGAGPFFGLAHEAQLKILELTAGQVATMYESPVGFRHGPKSLINDNTVVLVFGTTTDYTRKYDLDLVREVAGDQIARRVVLLSDQAFGLENVKEVALGCGGVLNDIYRVFPYIVYAQLFALLTSLKVENKPDTPSPTGTVNRVVQGVIIHEYQK | not soluble
MGSDKIHHHHHHMLIEEIMKRNVVTIHEQTTIKEAYQTMILEKFRHLPVITKSKDVIGIVTDQDIRDASPSIFHQDEHQEDLQKPVSSIMTKDVITVHPLNSVAETARLLYENRISCLPVTEGEQLVGIVTDTDVLHTLVELMGAHQPSSQIYVRVENKAGQLADVAAIMKQRQMNIASVLVYPHREDERYKILAFRIQSMDPRGTISDLQSKGYHVLWPNIPGIAT | not soluble
MGSDKIHHHHHHMLIIKLSAMGDSLCLFPTVRQLALAFPGATIDWLTSNRSNPALFAELPFIRTIFVTPPSLVRALTYLGGWLFRARRYDLTIDYDQYYCISELIAGMSACSAGFRTSLKGTTFSLSVEYDPLLNEKAMFRKLTERVFATYGVSIPDYRAELPELIERFVPSAQLQTLRARLKAQGKPIVGIYPGSGANATFRRWGVGNYVALIERYKDRYAFVLLGGPDERDLQADLKDIDGVFNLIDSMSFKEVAWFLKHTIDLLVGNDGGLLHVAESQAVATVGIFGPALYRKWGSSLERSIGVEKELPCRPCLKNYLGTVPSACCLGTTACLSAISTDDVAQAMHRAVHRIHVVPIAHA | not soluble
MGSDKIHHHHHHMLKIDNLTKTLENKKVISGISFSLKPSQIVGLIGRNGVGKTTLFRLISGEYVPDQGRVTSDESADARSEIFYLDSPDNFTNAFTANQLARIFKVSYPQLDIDWFKNLLKTNNLSLNKKLSGMSKGQRGLILAISAITSKSKYIFLDEPLDGLDLIIRDQVKQMLITAVSNSDTSVMIASHNLEELDFLADRIILLKNGKIEKDYLPGEELKTANVAKLQMVIEGELPKVVSECGHILEKRGHLYVVLFKDYNSKVASRIKRTKAQYIEQLPVNSDDIFRATFEEDYRLRQSAGKRTNK | not soluble
MGSDKIHHHHHHMLKSGGSFFYQVAQGYAMTKQPKTIQEMMTLLVEERGLDITGFSDFSTVLLDCNYYRLSGYFRAFQIDPSHGNNRFRNGTHIKDFMIPYLMDEQLRLLILRGTSSLEQTLRAHFAYYLAQNGGAYSYTELSSYKTIKYSDGTEAREVLIENIHKWLERSSEVCIRHYRNNNEPIPIWAAVEAMPFDTLSKMISLHTNTTAVDELNQSLSLGKNRQRAAQIIHSMVYLRNICSHHCRLWNREIVLPPPVLDATAERYGSYAYEDRSVWKSLIVLMDLIDGIKKNSTYSSMLIKQAESNDNYFWGLCHPKRWH | not soluble
MGSDKIHHHHHHMLLSMQGICKSFNGIPALRAASLEVGEAEVMALVGQNGAGKSTLIKILTGAYRRDEGAVVFAGEGVSFSMPAESQARGIATIYQEINLAPQRSVAENIYLSREPRRFGLIDRRAMRDGAAAVLRAFNLEIDVDQPVAGFSAATRQMVAIARAVTQKARLVIMDEPTSSLDEREVGILFDTIRTLKRGGVSVVFIGHRLEELYRICDRVTIMRDGKTVATAAMADMPKLALVRHMLGKELAAFEAIAKDADEGAQRPVRLSVRNAGAGVRVRDVSLTVREGEISGLAGLLGSGRTETANLIFGADRLQRGEIRYNGEARAYRQPADAIADGIGLVAEDRKVDGIIPDMSIRENMTLALLPKLARAGIVDRARQDEIVERYITALAIKCTSPDQPIKELSGGNQQKVLLGRWLCTDPKLLIVDEPTRGIDIGAKSEILRLLRRLADEGLGVLMISSELEELLAAADRVTVLSDGTSVAVLPRKELSEAALFAAMAHQVE | not soluble
MGSDKIHHHHHHMLMDSLQEIICEKRTYTRLYHSHKHAYSQFLFPLEGSIDLETEGRQVKLNPDHFLYIPPQCEHRFRSIGRNECLVLDVPLHAMKIDEYRAGSGIEAALDPFWSSIRYLLTEEAKAGTANSLHMLVQYIKEKLQSHSYASIAYIHSHLFERLTIKKLAEIEHYHPAYYSSWFKKQTGKSPQNYIADLRLEEAKRMLMERNETLTVVSEALGFQNLSSFTRWFTKSTGMPPRLYRNTLYSDKK | not soluble
MGSDKIHHHHHHMLMESVVSVFDPDLTHLPAVAHRLQFSDPESEVPLHVHRKGQLILALHGAVTCTAGNEIWIVPPNCGVWIPGGVPHSARATANAQLNYLFVEPEAANLPGSSCTLAISPLIREMVERLAEERADYLADSHAARIARVLLDELADMPRERFNLPISSHPKIRAIADALTAEPSDRRTLSDWAKQVAMSERSLARLLIRETGLTFGRWRQQLHLVVALRELASGEAVQNVAAGLGYESVNAFITMFKKALGSTPAQYFAQRHAPTKAGSGEQNRV | not soluble
MGSDKIHHHHHHMLNQSNELNAWDRDHFFHPSTHMGTHARGESPTRIMAGGEGVTVWDNNGRKSIDAFAGLYCVNVGYGRQKIADAIATQAKNLAYYHAYVGHGTEASITLAKMIIDRAPKGMSRVYFGLSGSDANETNIKLIWYYNNVLGRPEKKKIISRWRGYHGSGVMTGSLTGLDLFHNAFDLPRAPVLHTEAPYYFRRTDRSMSEEQFSQHCADKLEEMILAEGPETIAAFIGEPILGTGGIVPPPAGYWEKIQAVLKKYDVLLVADEVVTGFGRLGTMFGSDHYGIKPDLITIAKGLTSAYAPLSGVIVADRVWQVLVQGSDKLGSLGHGWTYSAHPICVAAGVANLELIDEMDLVTNAGETGAYFRAELAKAVGGHKNVGEVRGDGMLAAVEFVADKDDRVFFDASQKIGPQVATALAASGVIGRAMPQGDILGFAPPLCLTREQADIVVSKTADAVKSVFANL | not soluble
MGSDKIHHHHHHMLPETMKAVVLTAHGGLDKLVYRDDVPVPVCRAGEVLLDVTACGLNNTDVWVREGAYGTDDDPQAVSTWRRGRSTLSFPRIQGADIVGRVIAVGHGVSDARVGERVIVDASIYNRDDDSLADIDYIGHGRDGGYAEYTAVPAQSAHRIDSACSDAELATFWCAYHTGEQMIERAAVKSGETVLITGASGGVGSAIVQLCRARGAVPYAVVSKGKEEAVRELGAQGVMLRDSEDFAAAVERMTGGRPVDVVADLVGGALFGKLLNVLRPEGRYTTAGAIAGPVVQLDLRTMYLKQLQLNGSSQGTRGAFKRVLDYIQAGTIRPVLAATYPLSKFHEAQTQFMAKRFVGNIVVVPDRHYNGTADRT | not soluble
MGSDKIHHHHHHMLRAGWFFEGIQDNDLLKLKEACKAFNLDGVLLSSLVLSRLYGVCYVLLGTVDGGDLDQPFDLNKLGIGRLEFFTVLKKKYIEADTSKYLSPKEAGGLLKQPEFYKLKLDGKSTQRIHHTRLYKFGHADVVNEEPVSVLQEVYEDLLDHAAVKKASASLVHESKIDVIRTPNLVDKIKEDMKSVAERFLSVGLLKGLNGMIVLDKEEEYDSKSYSFGGLPDLMREFSIQAAGAADMPYTILFGQSPAGMNATGEHDTRNYYDSIATKQTWSLKPFMMKLLRVIVQTTFGRQIPSLDVVFNPLWQLDAKVRSEVEKANAERDSKYLEMGIITEPQIAKQLVIDGVYSVIDEAHIKELETMVKLNDNDNSDPETTPPAGEET | not soluble
MGSDKIHHHHHHMLRLITDFDGPIIDVSERYYRVYQFCLEKTRRPDQVVQELPKAEFWQLKRSRVPEKQIAFNSGLDEAQAQEFAQLRRQTVHTEAYFNYDTLAPGAVDALLKIQEAGIDLAVMTMRRVRELDYAFKKYDLGRFFPENRCYCLSNDYVKTRDIEDKPLLMARALKELPPAADTWMVGDTEADITAAKNYDIKVMAVESGIRDRTQLELYHPDLIVKDFSTAVDLVLKPKHLV | not soluble
MGSDKIHHHHHHMLRYHMQGFSGYGVQYSPFFDNRLAVAAGSNFGLVGNGKLFILEIDRSGRIVEVNSFLTQDCLFDLAWNESHENQVLVAQGDGTLRLFDTTFKEFPIAIFKEHEREVFSCNWNLVNRQNFLSSSWDGSIKIWSPLRKQSLMTLTPRPLEITKMVDPLNAIILKKKSFTGISKNRNCVYQAQFSPHDQNLVLSCSGNSYASLFDIRLPSGKNQNNFLVHSGLEALTCDFNKYRPYVVATGGVDNAIRIWDIRMLNKNESATIKRTVPGQLHNSSCINEIPNAHGLAIRKVTWSPHHSNILMSASYDMTCRIWRDLSNDGAKETYKTNSTDATKGSIFNFTQHSEFVFGADWSLWGKPGYVASTAWDGNLFVWNGLG | not soluble
MGSDKIHHHHHHMLSHEEIVAIAEDLLSKRYGGVQTLSDVEQLNGSGTSAVLRARVANSPFLQQRSVVLKYVPSTGDVFDDSALVREIVSYQFTTSLSEDVRPGPVILAYDIDKRILVISDSGNGDTFADLIDQRTGDQRMQILRNLGQSLGSLHAATADREEDFNILLNRMLAKYPATAEMQKNRDRLLPAAIEVGKKILVDAGVTVPEVVEEFARVARRRLISGRHRAFTPFDLSPDNIIVAERTHFLDYEVAGFRDATFDVACVIAGFPQFVFSRPISDDEVDELIESWVQEVRGIWPNVNNEERLQARIVTALIGWALSSVAFMKLGSISGMLNLLHVTEDGNTTLDVSNLDELLIPRSAEDDELVQQDLHDTFSALQRFAARGLDSRFPEVARFADDVVRLFLKND | not soluble
